Some results are limits rather than exact numbers.

The target of experiment [1] is HuTCR Vb17 × Va12 (SKW3-2) (human). In words: flow cytometry on SKW3-2 cells. (In flow cytometry, cells or beads pass a laser one at a time.)
The target in experiment [2] is HuTCR Vb17 × Va10.2 (SKW3_1) (human). In words: flow cytometry on SKW3-1 cells.
For experiment [3], the target named is HuTCR Vb7/9 × Va10.2 (SKW3-3) (human). As to the kind of experiment: flow cytometry on SKW3-3 cells (no Vβ17).
For experiment [4], the target named is TCR Vβ17 on T cells of PBMCs. As to the kind of experiment: flow cytometry on PBMCs, percent of cells stained.
Sequence of TCR Vβ17 on T cells of PBMCs (A0A075B6N1 22-114): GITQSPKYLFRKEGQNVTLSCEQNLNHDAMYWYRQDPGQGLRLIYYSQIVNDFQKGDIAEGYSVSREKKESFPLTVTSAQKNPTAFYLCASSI
The target in experiment [5] is Vβ17 (on cells expressing Vβ17). In words: cell-based or functional assay.
Sequence of Vβ17 (on cells expressing Vβ17) (A0A075B6N1 22-114): as above
Experiment [6] has as its target TCR Vβ17 on T cells of PBMCs. In words: cell-based or functional assay.

Sequence of HuTCR Vb17 × Va10.2 (SKW3_1) (human) (A0A075B6N1 22-114, chain 1 of 2): as the sequence (A0A075B6N1 22-114) above
Sequence of HuTCR Vb17 × Va10.2 (SKW3_1) (human) (A0A087WT01 20-109, chain 2 of 2, further chain): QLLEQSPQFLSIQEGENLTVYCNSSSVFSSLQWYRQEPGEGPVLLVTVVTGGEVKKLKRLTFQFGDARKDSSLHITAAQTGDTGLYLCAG
Sequence of HuTCR Vb17 × Va12 (SKW3-2) (human) (A0A075B6N1 22-114): as the sequence (A0A075B6N1 22-114) above

B1: 23A9B10 (antibody, V domains shown)
VH: EVQLQESGPGLVKPSQSLSLTCSVTGYSITSGYYWNWIRQFLGNKLEWMGYITYDGSNNYNPSLKDRISITRDTSKNQFFLNLNSVTTDDTATYYCARGGGYVPVWGTGTTVTVSS
VL: IQMTQSPAFLSVSPGERVSFSCRASQNIGTSIHWYQQRTNGSPRLLIKYASESISGIPSRFSGSGSGTDFTLSINSVESEDFADYYCHQSHNWPTTFGAGTKLELK
Turning to B1, the MFI was 6600 MFI in experiment [1], 10100 MFI in experiment [2] and 507 MFI in experiment [3]. In experiment [4], this molecule came in with a PBMC binding (%) of 2.74%.

B2: 23A9F7 (antibody, V domains shown)
VH: EVQLQESGPGLVKPSQSLSLTCSVTGYSITSGYYWNWIRQFLGNKLEWMGYITYDGSNNYNPSLKDRISITRDTSKNQFFLNLNSVTTDDTATYYCARGGGYVPVWGTGTTVTVSS
VL: DVQMTQSPAFLSVSPGERVSFSCRASQNIGTSIHWYQQRTNGSPRLLIKYASESISGIPSRFSGSGSGTDFTLSINSVESEDFADYYCHQSHNWPTTFGAGTKLELK
For B2, the MFI in experiment [1] was 3400 MFI; in experiment [2], 8600 MFI; in experiment [3] it was 466 MFI. The PBMC binding (%) in experiment [4] was 2.32%.

B3: 23A9C10 (antibody, V domains shown)
VH: EVQLQESGPGLVKPSQSLSLTCSVTGYSITSGYYWNWIRQFLGNKLEWMGYITYDGSNNYNPSLKDRISITRDTSKNQFFLNLNSVTTDDTATYYCARGGGYVPVWGTGTTVTVSS
VL: DIQMTQSPAFLSVSPGERVSFSCRASQNIGTSIHWYQQRTNGSPRLLIKYASESISGIPSRFSGSGSGTDFTLSINSVESEDFADYYCHQSHNWPTTFGAGTKLELK
In the case of B3, the results for the MFI in experiment [1], in experiment [2] and in experiment [3] were 3210 MFI, 7660 MFI and 458 MFI, respectively. The molecule further registered a PBMC binding (%) in experiment [4] of 3.2%.

B4: 28B2A2 (antibody, IgG2a, V domains shown)
VH: EVQLQESGPELVKPGASVKMSCKASGYTFTDDNMHWVKQSHGKSLEWIGYINPNNNHTNYNQKFKGKATLTVNKSSSTAYMELRSLTSEDSAVYFCARSTVVPFYAMDYWGQGTSVTVSS
VL: DIVMTQSPASLSMAIGEKVTIRCITITDIDDDMNWYQQKPGEPPKLLFSEGNTLRPGVPSRFSSSGYGSDFAFTIENMLSEDVADYYCLQSDNLPLTFGAGTKLELK
On to B4, for which the MFI in experiment [1] was 36500 MFI; in experiment [2], 77400 MFI; in experiment [3], 434 MFI. The Cell Internalization (EC50) in experiment [5] is less than 0.07 nM. The same molecule yielded a PBMC binding (%) in experiment [4] of 3.13%.

B5: 28B2F5 (antibody, IgG2a, V domains shown)
VH: EVQLQESGPELVKPGASVKMSCKASGYTFTDDNMHWVKQSHGKSLEWIGYINPNNNHTNYNQKFKGKATLTVNKSSSTAYMELRSLTSEDSAVYFCARSTVVPFYAMDYWGQGTSVTVSS
VL: DIKMTQSPASLSMAIGEKVTIRCITITDIDDDMNWYQQKPGEPPKLLFSEGNTLRPGVPSRFSSSGYGSDFAFTIENMLSEDVADYYCLQSDNLPLTFGAGTKLELK
Consider B5, for which the MFI is 36600 MFI in experiment [1], 81800 MFI in experiment [2] and 438 MFI in experiment [3]. In addition, in experiment [6], the Proliferation (EC50, ug/ml) turned out to be 0.7 µg/mL. This molecule also came in with a Cell Internalization (EC50) in experiment [5] of less than 0.07 nM. Moreover, in experiment [4], the PBMC binding (%) amounted to 3.2%.

B6: 28B2A4 (antibody, IgG2a, V domains shown)
VH: EVQLQESGPELVKPGASVKMSCKASGYTFTDDNMHWVKQSHGKSLEWIGYINPNNNHTNYNQKFKGKATLTVNKSSSTAYMELRSLTSEDSAVYFCARSTVVPFYAMDYWGQGTSVTVSS
VL: DIQMTQSPASLSMAIGEKVTIRCITITDIDDDMNWYQQKPGEPPKLLFSEGNTLRPGVPSRFSSSGYGSDFAFTIENMLSEDVADYYCLQSDNLPLTFGGGTKLEIK
B6: the MFI in experiment [1] amounted to 53800 MFI; in experiment [2], 45700 MFI; in experiment [3], 472 MFI. The Proliferation (EC50, ug/ml) in experiment [6] was greater than 5 µg/mL. In experiment [5], this molecule registered a Cell Internalization (EC50) of less than 0.07 nM. In experiment [4], this molecule gave a PBMC binding (%) of 2.97%.

B7: 21G11A8 (antibody, V domains shown)
VH: EVQLQESGPDLKKPGETVKISCKASGYTFTTYGMNWVKQAPGKGLKWMGYLNTYSGVSTYADDFKGRFAFSLETSANTAYLQINNLRNDDTATYFCARWGNYGAMDYWGQGTSVTVSS
VL: DIKMTQSPLSLPVSLGDQASISCRSSQSIVRSNGFTYLEWYLQKPGQSPELLIYKVSNRFSGVPDRFSGSGSGTDFTLKISRVEAEDLGVYYCFQSSHVPRTFGGGTKLEIK
As for B7, the MFI in experiment [1] was 38900 MFI; in experiment [2] it was 48700 MFI; in experiment [3], 532 MFI. Moreover, in experiment [6], the Proliferation (EC50, ug/ml) is greater than 5 µg/mL. In experiment [4], the PBMC binding (%) came out at 2.96%.

B8: 21G11D5 (antibody, V domains shown)
VH: EVQLQESGPDLKKPGETVKISCKASGYTFTTYGMNWVKQAPGKGLKWMGYLNTYSGVSTYADDFKGRFAFSLETSANTAYLQINNLRNDDTATYFCARWGNYGAMDYWGQGTSVTVSS
VL: DIVMTQSPLSLPVSLGDQASISCRSSQSIVRSNGFTYLEWYLQKPGQSPELLIYKVSNRFSGVPDRFSGSGSGTDFTLKISRVEAEDLGVYYCFQSSHVPRTFGGGTKLEIK
As for B8, the MFI in experiment [1] is 56300 MFI; in experiment [2] it was 47500 MFI; in experiment [3], 427 MFI. In experiment [6], this molecule gave a Proliferation (EC50, ug/ml) of 2 µg/mL. The molecule also returned a PBMC binding (%) in experiment [4] of 3.06%.

B9: 28D2E6 (antibody, IgG1, V domains shown)
VH: EVQLQESGPGLVKPSQSLSLTCSVTGYFISSGYYWKWIRQFPGNKLEWMGYISYDGSNNYNPSLKNRISITRDTSKNQFFLKLNSVTAEDTATYYCARGGGYVPVWGTGTTVTVSS
VL: DIQMTQSPLSLPVSLGDQASISCRSSQSIVRSNGNTYLEWYLQKPGQSPKLLIYKVSNRFSGVPDRFSGSGSGTDFTLKISRVEAEDLGVYYCFQSSHVPRTFGGGTKLEIK
As for B9, the MFI was found to be 53800 MFI in experiment [1], 38000 MFI in experiment [2] and 441 MFI in experiment [3]. The molecule also yielded a Proliferation (EC50, ug/ml) in experiment [6] of 0.3 µg/mL. The PBMC binding (%) in experiment [4] came out at 3.27%.

B10: 28D2E8 (antibody, IgG1, V domains shown)
VH: EVQLQESGPGLVKPSQSLSLTCSVTGYFISSGYYWKWIRQFPGNKLEWMGYISYDGSNNYNPSLKNRISITRDTSKNQFFLKLNSVTAEDTATYYCARGGGYVPVWGTGTTVTVSS
VL: DIKMTQSPLSLPVSLGDQASISCRSSQSIVRSNGNTYLEWYLQKPGQSPKLLIYKVSNRFSGVPDRFSGSGSGTDFTLKISRVEAEDLGVYYCFQSSHVPRTFGGGTKLEIK
Take B10: the MFI in experiment [1] was 50000 MFI; in experiment [2], 43600 MFI; in experiment [3], 452 MFI. In addition, the PBMC binding (%) in experiment [4] came out at 3.3%.

B11: 28C9A5 (antibody, IgG2b, V domains shown)
VH: EVQLQESGAELVRPGTSVKMSCKASGYTFTHYWIDWTKQRPGHGLEWIGNIYPGGGYTNYNENFKGKATLTADKSSSTVFMQFSSLTSDDSAIYYCTRKGYYYGSDWYFDVWGTGTTVTVSS
VL: QIVLSQSPAIMSASPGEKVTMTCSASSSVSYMHWYQQKSGTSPKRWIYDTSKLASGVPARFSGSGSGTSYSLTISSMEAEDAATYYCQQWSSNPYTFGGGTKLEIK
With B11, the MFI in experiment [1] is 56900 MFI; in experiment [2] it was 55200 MFI; in experiment [3] it was 438 MFI. Also, in experiment [6], the Proliferation (EC50, ug/ml) came out at 0.9 µg/mL. The same molecule came in with a PBMC binding (%) in experiment [4] of 3.27%.

B12: 20A9A9 (antibody, V domains shown)
VH: EVQLQESGPGLVQPSQSLSITCTVSGFSLTSYGVHWVRQSPGKGLEWLGIIWSAGGTDYNAAFISRLSISKDNSKSQIFFKLNSLHADDTAIYFCARGSFYDYGRLDYWGQGTTLTVSS
VL: DIVMTQSHRFMSTSVGDRVSITCKASQDVSTAVAWYQQKPGQSPKLLIYSSSYRYTGVPDRFTGSGSGTDFTFTISSVQAEDLAVYYCQQHYGTPYTFGGGTKLEIQ
As for B12, the MFI in experiment [1] came to 43100 MFI; in experiment [2], 39500 MFI; in experiment [3] it was 448 MFI. For the same molecule, the Proliferation (EC50, ug/ml) in experiment [6] was greater than 5 µg/mL. The PBMC binding (%) in experiment [4] amounted to 2.7%.

The values are drawn from patent US20250092134A1.
